We go through 23 sequences from the DeepSol protein solubility set.

The nature of this series: soluble on expression in E. coli; label from the status in PepcDB or PDB records.
As for “CHETTTVALPESIGVGKGTTTLEDFENADAIFIIGQNPGSNSPRMMSELHAAAKRGASIISFNPLREKALVRFASPQDPRDMLSLHGVEISSQYHQVRIGGDMIALQGVCKAVIEADDVARREHLPRVLDVAFIEEHTHGFEQYADYCRQLPWDLIESHSGLTRQAIEDVAAVYRRSERVICCWGMGVTQHKRGGDAVQQIINLLLLRGNIGKLGAGACPVRGHSNVQGDRTMGIYEKAGEPFLASMSKVFGFEA”, the “soluble on expression in E. coli” value is listed as “not soluble”.

Take “VRKCLSDTDCTNGEKCVQKNKICSTIVEIQRCEKEHFTIPCKSNNDCQVWAHEKICNKGCCWDLL”: the “soluble on expression in E. coli” value is “soluble”.

In the case of “FTSNKDERRWMVQCGSFRGAEQAETVRAQLAFEGFDSKITTNNGWNRVVIGPVKGKENADSTLNRLKMAGHTNCIRLAAGG”, the “soluble on expression in E. coli” value is “soluble”.

In the case of “MGQDRGFGFPTQRLCSLSSLALSHLGKQDLNLVSKTCGDTTDMFSTRGSYQVSTQVSQSYFDGYCGWVHGSSHLQQQFLPPQNQCMKQVPLQVDGVISKAEEQCSQKRFLVFDQSGDQTTLLLASDIRKSFETLKQHACPDMKEELQRSNKDLFVCHGMQGNSEPDLKEDSEELNALLYSEDESGYCSEEDEVTSADHSPSIVVSGREDQKTFLGSYGQPLNAKKRKILETSNESMRDAESSCGSCDNTRISFLKRSKLSSNKIGEEKIFETVSLLRSVVPGEELVDPILVIDRAIDYLKSLKMEAKNREA”, the “soluble on expression in E. coli” value is “soluble”.

With “MTQLCSDVRVSPLPGTAKVGDTYILFEHHGPWSHDILDGGTFDKETSAALKAMGCGFYLIRRHGREGRIERPKKTAYLVFGSAGIAEKLMVDDVTDLLKLDVSGPGKNRQFGAEQEAQPIILVCTHAKRDACCAIKGRPMAQALTEEFPDSPVWECSHTKGHRFAPSMVLMPWGYTWGQLNKPAAFDMYRYAQRGQLFLPGNRGRGIWPMKGQIAEVAVAQQLAQEGETVTLGQLRVESIEEAQAHVADSHTARTWTVFLREEVVAGIVDSCHKPPKTGTAWVADRVKENGALEHHHHHH”, the “soluble on expression in E. coli” value was “soluble”.

As for “GSGSEPAVCEMCGIVGTREAFFSKTKRFCSVSCSRSYSSNSKK”, the “soluble on expression in E. coli” value is reported as “soluble”.

Turning to “MGIIDKIKAIEEEMARTQKNKATEHHLGLLKGKLARYRQQLLADEAGSGGGGGSGFEVAKSGDARVVLIGYPSVGKSSLLGKITTTKSEIAHYAFTTLTSVPGVLKYQGAEIQIVDLPGIIYGASQGKGRGRQVVATARTADLVLMVLDATKSEHQRASLEKELENVGIRLNKEKPNIYYKKKETGGVKVTFTSPPKTNLTEQAIKMILRDYRIHNAEVLVRDDQCTIDDFIDVINEQHRNYVKCLYVYNKIDAVSLEEVDKLAREPNTVVMSCEMDLGLQDVVEEIWYQLNLSRVYTKKRGVRPVFDDPLVVRNNSTIGDLCHGIHRDFKDKFKYALVWGSSAKHSPQKCGLNHRIDDEDVVSLFAK”, the “soluble on expression in E. coli” value was “soluble”.

Consider “MNINPFANVSLQDYLEIVQIVDSTFPIGSFNHSFGMENYLREDTVTDDKGYEEWQEAYLASQFKYGEGLVIKLVYDAMVTDNIDQVWYYDKVLTVSTQARETRQGTKMIAKQMLRLIQRLHAIPVLDDYQSKIRKGVAFGNPAIVFALYVFNKGLGCNEAIALYGYSVISTMVQNAVRAIPLGQFAGQEIVLRSFSQLEKMTQEIQELDASYLGANTPGLELAQMKHETQVFRLFMSLEHHHHHH”, for which the “soluble on expression in E. coli” value is on record as “not soluble”.

Turning to “MGSDKIHHHHHHMPLLDIRNLTIELDTPEGTVKVLEKVSLTINPGEIHGLVGESGSGRSLLAKAILGVLGPNWHIIADRMMWDGKNLLEMSSKQRRCLMGSEMAMIFQDPSGSLDPVKTIGSQLIEAMVPNKNIPFWRRGKATYLNAQKWLHKVGIKKPKQLMKCYPWELSEGECQKVMIAMAVANHPKLLIADEPTNSMELNTQAQIFRLLSQLNQLQNVSILLVSHELETMVHWCDNLTILYSGQVMESGPVSEMVAMPYHPYTRALLKNLPDHTEKMRHKANLPTLQGSSPSLQHLPAGCRLGPRCPEAQRQCVKQPNLEHIKDRYFACHFPYQSEQEDDDAIA”, the “soluble on expression in E. coli” value was “not soluble”.

Regarding “SEDNITVRFVTENDKEGWQRLWKSYQDFYEVSFPDDLDDFNFGRFLDPNIKMWAAVAVESSSEKIIGMINFFNHMTTWDFKDKIYINDLYVDENSRVKGAGGKLIQFVYDEADKLGTPSVYWCTDESNHRAQLLYVKVGYKAPKILYKRKGY”, the “soluble on expression in E. coli” value is listed as “soluble”.

In the case of “MTDAQSRDEKGIPASIYDGIFKNNRQIKPGNPNELKMVMGLKLKEVNKDCADAVLRVSKATLSWEIVREIMNATERLIQERVSDPTGQVAIAVDPPSSWSKSVTDFLASCYKLSPSPNFKFLELLAILTGKSQYLILQWFDTAEEEKREKNQKLETATFKRHCPWRKRHRLIQPLSNATAIPFLEAAFQKSSIPGSVELYDLQLKTNWFICELKAWFTARRVAEEIKGKLSELTGVQGVAKDQS”, the “soluble on expression in E. coli” value is “not soluble”.

Turning to “MSHRSPSVTPAVSVLIPAWNAVRHLPAALDGLLSQTFQDWEAVVVDDGSQDETPALLAAYAARDARIRPLHVEHGGIVHALNHGLLHVRGRHVARMDADDTCHPERLALQCHALDNAPHLGLVASRVTFGGDAAQCGGFVRYVDWTNSLLCHEDIALGRFRESPLVHPSVMFRRELIDRFGPYANGPFPEDYELWLRWLEAGVRMEKLPEHLLVWNDPPGRLTRTHDNYAEAGFVALRTRYLARWLCAHNPQHPDVWVIGAGKASRRRARPLCEHGIRIRAWVDIDPHKIGNIVEGLPVVGREAMPAPGQGFMLAFLAGHGAAEELELFLHGAGYLPGQDYLLASLEHHHHHH”, the “soluble on expression in E. coli” value was “soluble”.

Consider “RTGAELLALTTSTGKSIAQLMWDNERAWHTEAETRTGLLKIWDVMQSCVARGCGIGNPDADGTLPGPFQVKRRAPQLYRALTGNPERALQDPLSMVDWINLYAIAVNEENAAGGRVVTAPTNGAAGIIPAVLHYYTRFTPGANEQGVIDFLMTAAAIGILYKLNASISGAEVGCQGEVGVACSMAAGALAAVLGGTPQQVENAAEIGMEHNLGLTCDPVGGMVQIPCIERNAMASVKAVNAARMALRGDGSHYVSLDSVIKTMRETGADMKTKYKETSRGGLAVN”, for which the “soluble on expression in E. coli” value is “not soluble”.

Regarding “MQPQSVLHSGYLHPLLRAWQTATTTLNASNLIYPIFVTDVPDDIQPITSLPGVARYGVKRLEEMLRPLVEEGLRCVLIFGVPSRVPKDERGSAADSEESPAIEAIHLLRKTFPNLLVACDVCLCPYTSHGHCGLLSENGAFRAEESRQRLAEVALAYAKAGCQVVAPSDMMDGRVEAIKEALMAHGLGNRVSVMSYSAKFASCFYGPFRDAAKSSPAFGDRRCYQLPPGARGLALRAVDRDVREGADMLMVKPGMPYLDIVREVKDKHPDLPLAVYHVSGEFAMLWHGAQAGAFDLKAAVLEAMTAFRRAGADIIITYYTPQLLQWLKEE”, the “soluble on expression in E. coli” value was “soluble”.

As to “MSLERLNKPSAPRYSRLREWVVGCAPNDLVVVKFGGSVLNGSPGFLAAGRLVLGLLESGLEPVVVVSAVKGVTDALLSSFERRDPGVGGAVGKTYLSIARELGLPPESVRDVSLASAEVSKLLWAAEVLGQWTPRVRDLVVSYGERLSAALMAGLLRRLGVEARWLGGGEAGIVTDGEFGDATPLYGYTEGVIRERLEPMLEEGVVPVVAGFTGATREGDTTLLGRGGSDLTATLLASALGAGRVVLYTDVPGILSGDPRVVGEPRRVGYMSYEEAWEVARLGLRKFHPRTFEPLIAGGLGVEVVVSDLRGRSTRIGPGRGGPPLKVVSLSRGVARLVVRGPSMAGKRGFLSRLAGLLAGRGVNILAIRQPPSETAIELVVDERDLPAAVEELGARSGAAGVRLEVERGFDVVSIVGWGAVEALPEALSAAEKTGGRLLSTGELSPSISILARGRTSPELARLLHRRVVESWVTGEGHHHHHH”, the “soluble on expression in E. coli” value was “not soluble”.

For the sequence “LDRAYLRVENQRYRDKLEAANRELQASLNLLQEDQNAGRQVQMNMLPVTPWSIEGLEFSHRIIPSLYLSGDFVDYFRVDERRVAFYLADVSGHGASSAFVTVLLKFMTTRLLYESRRNGTLPEFKPSEVLAHINRGLINTKLGKHVTMLGGVIDLEKNSLTYSIGGHLPLPVLFVEGQAGYLEGRGLPVGLFDDATYDDRVMELPPSFSLSLFSDGILDVLPGATLKEKEASLPEQVAAAGGTLDGLRQVFGLANLAEMPDDIALLVLSRNLA”, the “soluble on expression in E. coli” value is reported as “not soluble”.

Turning to “MSEAEYFSHFISNGNGKLLEIPQRRGRQDGVFIDWLSFTLHEDSLLKVSGCPLVSDAEYMFVLSKKLEEILGFGITSRCKSKGNKFYDSMFRLGSEEVDYGEVHYGGQRNTVLIELKGVGCNIANPGWELRLKQFLEDSLRPRITRVDLALDFFDGEYTPEQALLDHDNGFFDNSNMRPKSEMVGTAWRREDGSGKTFYVGRKKNSRFVRVYEKGRQLGDKESKWVRFEIQFNHGDMEIPLDILINQGSYFSGAFPICQKFKNMPNPERFDYRKKVANLTFQHKLRYAKNAVGKLINFMFDMGFDSDEIVRYLKADLGYPKGLEPEKYSLAGLKESLKFGFIHEQPDVDLEVELEELGIIKFKQSDKFDPDKRLFDPHHDVESERQYQLYLDRMYDLHANQN”, the “soluble on expression in E. coli” value is “not soluble”.

With “MGHHHHHHSHMYKRCKRGQDKCMMRPLSNPLTEAYNVQNLYQCLNCDDYHLCNGSLNCDPLVDREGIVCTVTGKYIQCNVRESPMCGAACLDVDIHPEDNTDCILRALFGDIVDIINKLDDIAEIKDKILAGDSLNEHIKKKIECTFPMCANIINCNSQGYSILCSMFVHIIMSIYANKTIYGHMLFKCTRNKKYDTIAKKIREKWMYLE”, the “soluble on expression in E. coli” value is recorded as “not soluble”.

As to “MEKRGKVWLAVSGLVATKDGRWLFVKKKYSGLKGKWSLPAGFVNEGETVDEAVKREVLEETGIVAHVKGIIGVRSGVIRNEISDNMIIFLLEPEGENIIIQEKELSEVAFLHPDKIVDDPNTSVLIKYLLEGRSELHLEVDKTLNPGEPFGYTAYHVFTARAKERGKE”, the “soluble on expression in E. coli” value is on record as “not soluble”.

“MDKIHAMQLFIRVADLESFSRAAETLALPKGSVSRQIQALESHLGVRLLHRTTRRVQLTQDGMVYYERAKDLLSNLDELDGMFQHDPASISGRLRVDMPVGFAKKMVIPHLPTFLQQYPGIELELSSSDRQVDVIREGFDCVVRVGALKDSGLIARPLGKLTQINCASPDYLARFGYPQSLEDLADHALIHYASTLGVRPPGFEVMIDGAVRWVKTGGILTVNSTETYQAACIAGLGIIQVPRTGVREALRAGDLIEILPQYRAEPLPVSLIYPHRRNLSRRVNLFMEWLGGLMKAYVD”: the “soluble on expression in E. coli” value was “not soluble”.

In the case of “MTDLTGILYIVATPIGNLQDITQRALETFAQVDLIAAEDTRHSGLLLSHYGIKKPFFALHDHNEQEKAHILVEKLKQGSNIALISDAGTPLISDPGFHLVRQCREAGIRVVPLPGACAAITALCASGIASDRFCFEGFLPAKSKARKDKLENIAEEDRTLIFYESTHRILDTLEDMQAVLGEERYIVLAREMTKTWETITGNTIKNLREWLLEDPNRTKGEMVLIVEGKPKSDNNDEISPQAVKALELIAEELPLKKAAAIVAELYGYKKNALYQFGLAHLEK”, the “soluble on expression in E. coli” value is “not soluble”.

As to “MPLTLYQRDDCHLCDQAVEVVAQARAGDFDSVFIDDDAALEAVYGARVPVLRDARGRELEWPFDRVRLRAWLDDDAERLEHHHHHH”, the “soluble on expression in E. coli” value is “not soluble”.

Consider “MKQLYWYTCGEGDCDLVLLHGWGLNSGVWHCIIDRLAPHFRLHLVDLPGYGRSQDYGAMSLADMAERVAQQAPKQALWLGWSMGGLVASQIALSQPECVRGLITVSSSPCFTARDEWPGIKPEVLAGFQHQLSDDFHRTVERFLALQTLGTESSRQDARLLKSVVLQHQMPDVEVLTGGLAILRTADLRTALAGFTLPFMRVYGHLDSLVPRKVASLLDSAWPQTQSVVMQGAAHAPFISHPNDFAKLILNFAEENKK”, for which the “soluble on expression in E. coli” value is recorded as “not soluble”.
